Laboratory results from article PMC7538161, “Breakage of the oligomeric CaMKII hub by the regulatory segment of the kinase” (eLife, 2020).
Several values for one entry are separate records, joined by “and”; a condition that tells them apart may be missing. Identical values can stand only once. Non-standard residues stand in square brackets, D forms with d. No end group written: not given here. pT = C[C@@H](OP(=O)(O)O)[C@H](N)C(=O)O

B1: human CaMKII-α hub domain (domain or fragment, UniProt Q9UQM7 345-475, looked up)
chain: VRKQEIIKVTEQLIEAISNGDFESYTKMCDPGMTAFEPEALGNLVEGLDFHRFYFENLWSRNSKPVHTTILNPHIHLMGDESACIAYIRITQYLDAGGIPRTAQSEETRVWHRRDGKWQIVHFHRSGAPSV
notes: Ca2+/calmodulin-dependent protein kinase II alpha (CaMKII-α), human, hub domain, residues 345-475 of Uniprot Q9UQM7; Forms dodecameric and tetradecameric assemblies; also called the hub; hub assembly; source: E. coli BL21, purified (Ni-NTA, PreScission cleavage, Ni-NTA flow-through, Superose 6 gel filtration); not shown: His6, N-terminal, cleaved; copies: 12 or 14

Legend:
[1] = target: B1; test: native MS; hub 120 µM (subunits) mixed with 1 µM to 1 mM unphosphorylated peptide, ~400 mM ammonium acetate, incubated 5 min at room temperature; nanoelectrospray, sample cone voltage 50 V, source 80°C; settings: both partners purified
[2] = target: the molecule itself; test: native MS; hub alone, 120 µM subunit concentration in 400 mM ammonium acetate, 5 min at room temperature; nanoelectrospray, sample cone voltage 50 V, source 80°C
[3] = target: B1; test: native MS; hub 120 µM (subunits) mixed with 1 to 100 µM phosphorylated peptide, ~400 mM ammonium acetate, injected at once without incubation; sample cone voltage 50 V; settings: both partners purified

Binder | binding result [1] | further results
KRPPKLGQIGRSKRVVIEDDRIDDVLK (source: bought: Elim Biopharm (lyophilized powder)) [Peptide H, CaMKIINTide] | binds | 
LKKFNARRKLKGAILTTMLA (source: bought: Elim Biopharm (lyophilized powder)) [Peptide A] | binds | 
AILTTMLATRNFSGGKSGGNKK (source: bought: Elim Biopharm (lyophilized powder)) [Peptide B] | binds | 
B1 |  | stoichiometry N [2]: 12 and 14
AIL[pT]TMLATRNFSGGKSGGNKK (also: phosphothreonine at Thr 305, also called phosphorylated Peptide B; source: bought: Elim Biopharm (lyophilized powder)) [Peptide B^phos] |  | binding result [3]: binds
LKKFNARRKLKGAIL[pT]TMLA (also: phosphothreonine at Thr 305, also called phosphorylated Peptide A; source: bought: Elim Biopharm (lyophilized powder)) [Peptide A^phos] |  | binding result [3]: binds
RSTVASCMHRQETVDCLKKFNA (also called autonomy site peptide; source: bought: Elim Biopharm (lyophilized powder)) [Peptide G] | binds | 
